Reference: the supplement of paper PMC6757056
± gives the standard deviation of the averaged measurements.

B1: library; a variant is named by its letters at N, in order (parent)
chain: GCUGUCACCGAGAAACUGUGAAGUAUAUCUUAAACCUGGGCACUUAAAAGAUAUAUGGAGUUAGUAGUGCAACCUGCUCGGUCUGAUGAGUCCNNNNNNGGACGAAACAGC

How the values were obtained:
cyclic di-GMP [1] = variants of: B1; test: normalized RNA/DNA level without ligand (relative to sTRSVctl = 100) (log10 (% of sTRSVctl)); HEK293T; ligand: cyclic di-GMP (c-di-GMP-II aptamer); higher = less ribozyme self-cleavage, higher mRNA level; conditions: reporter: mCherry (pCS4076), ligand present: no
Procedure, shortened: (§1)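 Total RNA, extracted with EDTA 72 h after HEK293T cells were transfected with 4 µg per 6-well well of reporter-linked ribozyme switch library plasmids, was reverse-transcribed, amplified, barcoded and sequenced. Ligand, if used, was added 1 h before transfection. RNA level was derived from RNA reads divided by DNA reads and normalized to a spiked-in non-cleaving sequence or to the top sequences. This was multiplied by 100 and log10-transformed, with the top set of 25 sequences and a ≥100 DNA read minimum.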

cyclic di-GMP [2] = variants of: B1; test: normalized RNA/DNA level with ligand (relative to sTRSVctl = 100) (log10 (% of sTRSVctl)); HEK293T; ligand: cyclic di-GMP (c-di-GMP-II aptamer); ligand concentration (+) RNA-Seq: 1 mM; higher = less ribozyme self-cleavage, higher mRNA level; conditions: reporter: mCherry (pCS4076), ligand present: yes
Procedure, shortened: as §1

Variant | normalized RNA/DNA level without ligand (log10) (cyclic di-GMP [1]) | normalized RNA/DNA level with ligand (log10) (cyclic di-GMP [2])
GUAAGU | 1.65 ± 0.033 | 1.77 ± 0.061
GUAAGC | 1.58 ± 0.028 | 1.76 ± 0.16
AUAAGU | 1.55 ± 0.033 | 1.73 ± 0.12
AUAAGC | 1.6 ± 0.022 | 1.77 ± 0.082
AUAAGG | 1.54 ± 0.057 | 1.71 ± 0.12
AUAAGA | 1.4 ± 0.11 | 1.62 ± 0.12
UUAUAG | 1.71 ± 0.046 | 1.8 ± 0.11
UUAUAA | 1.6409 ± 0.0011 | 1.81 ± 0.13
UUAUAC | 1.73 ± 0.018 | 1.86 ± 0.053
CUAUCG | 1.79 ± 0.047 | 1.88 ± 0.12
CUAUCA | 1.538 ± 0.014 | 1.74 ± 0.038
AUACAG | 1.59 ± 0.089 | 1.77 ± 0.04
AUACAC | 1.71 ± 0.02 | 1.82 ± 0.081
CGUUUG | 1.71 ± 0.02 | 1.86 ± 0.069
CGUUUC | 1.59 ± 0.025 | 1.78 ± 0.11
GGUUGU | 1.7 ± 0.061 | 1.86 ± 0.16
GGUUGA | 1.57 ± 0.15 | 1.74 ± 0.035
GGUUGC | 1.7 ± 0.018 | 1.87 ± 0.021
CUAAAG | 1.64 ± 0.033 | 1.79 ± 0.055
CUAAAC | 1.7 ± 0.018 | 1.79 ± 0.095

Variant | normalized RNA/DNA level without ligand (log10) (cyclic di-GMP [1]) | normalized RNA/DNA level with ligand (log10) (cyclic di-GMP [2])
GGUUAA | 1.54 ± 0.11 | 1.67 ± 0.029
GGUUAU | 1.64 ± 0.049 | 1.8 ± 0.2
GGUUAG | 1.54 ± 0.062 | 1.7 ± 0.08
GGUUAC | 1.76 ± 0.057 | 1.87 ± 0.033
UUAGUC | 1.72 ± 0.048 | 1.83 ± 0.086
UUAGUU | 1.77 ± 0.019 | 1.86 ± 0.14
UUAGUA | 1.609 ± 0.0054 | 1.79 ± 0.13
CUAGGC | 1.74 ± 0.03 | 1.89 ± 0.11
CUAGGA | 1.54 ± 0.055 | 1.72 ± 0.099
CUAGGU | 1.7 ± 0.026 | 1.85 ± 0.14
CUAGGG | 1.62 ± 0.022 | 1.78 ± 0.12
CGUGUU | 1.6 ± 0.033 | 1.78 ± 0.12
CGUGUC | 1.67 ± 0.055 | 1.82 ± 0.038
CGUGUA | 1.4 ± 0.062 | 1.56 ± 0.13
CGUGUG | 1.678 ± 0.0082 | 1.8 ± 0.092
AUAGCA | 1.71 ± 0.043 | 1.81 ± 0.15
AUAGCG | 1.73 ± 0.02 | 1.85 ± 0.15
AUAGCU | 1.68 ± 0.024 | 1.78 ± 0.069
AUAGCC | 1.76 ± 0.022 | 1.87 ± 0.095
AUAUAU | 1.678 ± 0.0055 | 1.83 ± 0.11

Variant | normalized RNA/DNA level without ligand (log10) (cyclic di-GMP [1]) | normalized RNA/DNA level with ligand (log10) (cyclic di-GMP [2])
AUAUAA | 1.5 ± 0.042 | 1.67 ± 0.13
AUAUAC | 1.68 ± 0.019 | 1.82 ± 0.12
AUAAAA | 1.53 ± 0.056 | 1.67 ± 0.073
AUAAAU | 1.59 ± 0.005 | 1.8 ± 0.11
AUAAAC | 1.647 ± 0.0018 | 1.8 ± 0.13
GUAGGC | 1.6 ± 0.064 | 1.78 ± 0.048
GUAGGU | 1.6 ± 0.028 | 1.8 ± 0.1
GUAGGG | 1.55 ± 0.11 | 1.71 ± 0.025
GUAAUU | 1.689 ± 0.016 | 1.78 ± 0.054
GUAAUA | 1.59 ± 0.044 | 1.73 ± 0.045
GUAAUC | 1.35 ± 0.22 | 1.56 ± 0.12
AUAGGC | 1.55 ± 0.023 | 1.76 ± 0.18
AUAGGA | 1.35 ± 0.13 | 1.55 ± 0.15
CUAACC | 1.8 ± 0.038 | 1.84 ± 0.12
CUAACG | 1.77 ± 0.031 | 1.85 ± 0.15
CUAACA | 1.662 ± 0.0013 | 1.78 ± 0.09
UGUUGU | 1.72 ± 0.015 | 1.9 ± 0.061
UGUUGC | 1.75 ± 0.026 | 1.89 ± 0.14
